Columns and labels:
Settings in all cases: both partners purified
[1] = target: T1, WT Cu, Zn superoxide dismutase-1 (SOD1), recombinant human (human, UniProt P00441 1-154); experiment: capillary electrophoresis; both homodimers as 4Zn-SOD1; 15 μM dimer each ([SOD1]total = 30 μM), followed over time; 10 mM potassium phosphate pH 7.4, CE at 22 °C, storage at 15 °C; KHet assumed from the fit extrapolated to t = 5000 min
T1 construct: Cu, Zn superoxide dismutase-1 (SOD1), human; Homodimer; intramolecular disulfide bond intact; N-terminus probably acetylated (surmise); also called WT SOD1; WT apo-SOD1; source: demetalated by dialysis, remetalated with ZnSO4 where stated

[2] = target: T1, WT Cu, Zn superoxide dismutase-1 …; experiment: capillary electrophoresis; binder (first named) as 4Zn-SOD1, target (second named, WT or TD) as apo-SOD1; 15 μM dimer each ([SOD1]total = 30 μM), followed over time; 10 mM potassium phosphate pH 7.4, CE at 22 °C, storage at 15 °C; KHet assumed from the fit extrapolated to t = 5000 min
[3] = target: T1, WT Cu, Zn superoxide dismutase-1 …; experiment: capillary electrophoresis; both homodimers apo (metal-free, disulfide intact), mixed at 15 μM dimer each ([SOD1]total = 30 μM), followed over time; 10 mM potassium phosphate pH 7.4, CE at 22 °C, storage at 15 °C; KHet assumed from the fit extrapolated to t = 5000 min
[4] = target: T1, WT Cu, Zn superoxide dismutase-1 …; experiment: capillary electrophoresis; binder (first named) as apo-SOD1, target (second named, WT or TD) as 4Zn-SOD1; 15 μM dimer each ([SOD1]total = 30 μM), followed over time; 10 mM potassium phosphate pH 7.4, CE at 22 °C, storage at 15 °C; KHet assumed from the fit extrapolated to t = 5000 min

T1 sequence (P00441 whole entry): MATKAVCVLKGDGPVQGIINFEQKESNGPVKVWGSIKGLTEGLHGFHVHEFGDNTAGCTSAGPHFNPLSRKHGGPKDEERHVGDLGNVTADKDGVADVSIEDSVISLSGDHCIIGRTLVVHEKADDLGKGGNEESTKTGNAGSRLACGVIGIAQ

- assumed KHet (t = 5000 min) [1]: 2.13 ± 0.71
- kHet (rate constant of heterodimerization) [1]: 0.0038 min⁻¹
- assumed KHet (t = 5000 min) [2]: 2.09 ± 0.14
- kHet (rate constant of heterodimerization) [2]: 0.0041 min⁻¹
- assumed KHet (t = 5000 min) [3]: 2.34 ± 0.31
- kHet (rate constant of heterodimerization) [3]: 0.0128 min⁻¹
- assumed KHet (t = 5000 min) [4]: 2.27 ± 0.08
- kHet (rate constant of heterodimerization) [4]: 0.0066 min⁻¹
B1: triply deamidated SOD1 (modeled with N26D/N131D/N139D substitutions), recombinant human (enzyme)
chain: not shown
notes: Cu, Zn superoxide dismutase-1 (SOD1), human, triple mutant N26D/N131D/N139D; printed mass of the apo subunit 15847 Da; Homodimer; disulfide intact; also called TD SOD1; TD; source: demetalated by dialysis, remetalated with ZnSO4 where stated
